Laboratory results as given in patent publication US10487337B2, “Methods for monocot plant improvement” (Agresearch Limited, priority 2014, dated 2019).

What was measured:
[1] = tested on: ryegrass plants; assay: Leaf biomass analysis of grass transformants; type: in vivo; conditions: observed leaf growth, approximately 6 weeks
Procedure: (§1) An equal number (typically 4-10) of tillers were taken from WT and ryegrass plants transformed with Arabidopsis PPD under one of two green tissue promoters. Tillers were planted into plastic grow bags containing potting mix and pruned to be of equal height. […] The increase in leaf/shoot biomass can be quantified removing the attached above ground portion (leaves and shoots) and drying them at 65° C. for 48 hr then weighing the dry weights.
as §1, with “a constitutive promoter.” for “one of two green tissue promoters.”, “was” for “can be”, “weights (Table 2).” for “weights.”

[2] = tested on: ryegrass plants; assay: Root biomass analysis of grass transformants; type: in vivo; conditions: root growth beyond the grow bag, approximately 6 weeks
Procedure: as §1, with “three root” for “two green tissue”, “root” for “leaf/shoot”, “was” for “can be”, “the roots” for “them”, “weights (Tables 3 and 4)” for “weights.”
as §1, with “a constitutive promoter.” for “one of two green tissue promoters.”, “root” for “leaf/shoot”, “was” for “can be”, “the roots” for “them”, “weights (Table 5).” for “weights.”

[3] = target: T1, NINJA (Arabidopsis thaliana, UniProt Q9SV55); assay: BiFC interaction with NINJA in Nicotiana benthamiana leaves; type: cell-based; conditions: in plants (FIG. 8)
T1 construct: expressed in transfected cells; host or cells: Nicotiana benthamiana leaves (Agrobacterium infiltration)
Excerpt: The binary BiFC-Gateway YFP vectors pDEST-VYNE(R)^GW (Venus aa 1-173) and pDEST-VYCE(R)^GW (Venus aa 156-239) with N-terminal fusions, were used to construct the following vectors; pDESTnYFP-BZR1, pDESTnYFP-NINJA, pDESTnYFP-PPD1, pDESTcYFP-BZR1, pDESTcYFP-PPD1, pDESTcYFP-PPD1Δppd, pDESTcYFP-PPD1Δtify and pDESTcYFP-PPD1Δjas*. For transient in planta expression of proteins interacting with PPD1 or BZR, NINJA and TPL were Gateway® sub-cloned into pRSh1, to construct pRSh1-NINJA and pRSh1-TPL. […] When expressed these constructs produced proteins listed in sequences 60, 62, 70 71 72 73 74 75 76 77 78 79: including TOPLESS (TPL), NINJA, Bimolecular Fluorescence (BiFC) nYFP, BiFC cYFP, BiFC nYFP-NINJA, BiFC nYFP-BZR1, BiFC cYFP-PPD1, BiFC cYFP-NINJA, BiFC cYFP-BZR1, BiFC cYFP-PPD1-ppd, BiFC cYFP-PPD1-tify, BiFC cYFP-PPD1-jas*.
Transient BiFC experiments were performed using combinations of pDESTnYFP and pDESTcYFP plasmids, with or without plasmids for the expression of NINJA (pRSh1-NINJA) or TPL (pRSh1-TPL) and Agrobacterium-infiltration of Nicotiana benthamiana leaves. […] Two hours prior to sampling for microscopic fluorescence observations leaves were infiltrated with a 1 μg/ml DAPI solution to stain nuclei. YFP fluorescence and DAPI staining was detected using an Olympus Fluoview FV10i confocal laser scanning microscope. […]

T1 sequence (Q9SV55 with tags, fused parts or gaps): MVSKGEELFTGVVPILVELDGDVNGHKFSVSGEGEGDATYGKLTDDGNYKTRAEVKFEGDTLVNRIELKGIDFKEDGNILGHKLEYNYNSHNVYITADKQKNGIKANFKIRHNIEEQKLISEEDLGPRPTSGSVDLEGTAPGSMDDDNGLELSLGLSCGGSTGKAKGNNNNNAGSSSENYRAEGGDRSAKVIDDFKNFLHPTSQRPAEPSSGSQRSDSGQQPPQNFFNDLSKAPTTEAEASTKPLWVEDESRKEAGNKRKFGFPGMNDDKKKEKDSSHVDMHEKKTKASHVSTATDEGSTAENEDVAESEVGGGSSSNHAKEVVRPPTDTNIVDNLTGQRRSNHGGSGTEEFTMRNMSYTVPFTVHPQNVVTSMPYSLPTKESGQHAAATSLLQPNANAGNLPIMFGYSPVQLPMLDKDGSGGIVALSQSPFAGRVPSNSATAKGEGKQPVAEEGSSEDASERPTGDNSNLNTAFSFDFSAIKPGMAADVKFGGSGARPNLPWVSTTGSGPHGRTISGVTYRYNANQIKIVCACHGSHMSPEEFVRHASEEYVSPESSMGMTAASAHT

B1: PPD1: PEAPOD 1 protein of Arabidopsis thaliana, SEQ ID NO: 1 (protein, listed as Arabidopsis thaliana)
chain: MDVGVSPAKSILAKPLKLLTEEDISQLTREDCRKFLKDKGMRRPSWNKSQAIQQVLSLKALYEPGDDSGAGIFRKILVSQPVNPPRVTTTLIEPSNELEACGRVSYPEDNGACHRMDSPRSAEFSGGSGHFVSEKDGHKTTISPRSPAETSELVGQMTIFYSGKVNVYDGIPPEKARSIMHFAANPIDLPENGIFASSRMISKLISKEKMMELPQKGLEKANSSRDSGMEGQANRKVSLQRYREKRKDRKFSKAKKCPGVASSSLEMFLNCQPRMKAAYSQNLGCTGSPLHSQSPESQTKSPNLSVDLNSEGI
[1]; constitutive promoter
  leaf biomass/growth/length/branching compared to WT plants: increase in leaf biomass/growth/length/branching
[1]; green tissue promoter
  leaf biomass/growth/length/branching compared to WT plants: increase in leaf biomass/growth/length/branching
[2]; constitutive promoter
  root biomass/growth/length/branching compared to WT plants: increase in root biomass/growth/length/branching
[2]; root promoter
  root biomass/growth/length/branching compared to WT plants: increase in root biomass/growth/length/branching
[3]
  interaction with NINJA: interacted with NINJA in plants
